Starred links: 1 amine or outer side, 2 acyl side, 3 side chain; linkers in the order of their positions; H or OH if unused. Non-standard residues stand in square brackets, D forms with d. *: point of attachment. C20 diacid = O=C(O)CCCCCCCCCCCCCCCCCCC(=O)*; γGlu = O=C(O)[C@H](CCC(=O)[*:2])N[*:1]; Hyp = O=C(O)[C@@H]1C[C@@H](O)CN1; αMeN = C[C@](N)(CC(N)=O)C(=O)O
Molecular target: T1, human amylin receptor (AMY3) on CHO-K1/Ga15/AMY3 amylin receptor/CRE-luc cells (human, UniProt P30988 25-474; O60896 24-148)
T1 sequence (looked up) 1: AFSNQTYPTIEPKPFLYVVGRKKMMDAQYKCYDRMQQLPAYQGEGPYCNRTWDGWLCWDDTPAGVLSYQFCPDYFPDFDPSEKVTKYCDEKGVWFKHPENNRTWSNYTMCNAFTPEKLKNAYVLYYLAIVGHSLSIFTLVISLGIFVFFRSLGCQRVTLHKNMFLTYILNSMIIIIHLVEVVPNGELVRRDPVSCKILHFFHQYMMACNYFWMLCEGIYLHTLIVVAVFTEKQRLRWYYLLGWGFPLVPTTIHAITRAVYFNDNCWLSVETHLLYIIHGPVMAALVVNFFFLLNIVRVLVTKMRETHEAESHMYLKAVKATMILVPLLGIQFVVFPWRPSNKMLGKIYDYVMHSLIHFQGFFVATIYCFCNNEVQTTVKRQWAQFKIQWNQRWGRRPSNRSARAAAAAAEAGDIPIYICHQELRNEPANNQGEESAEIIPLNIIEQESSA
T1 sequence (looked up) 2: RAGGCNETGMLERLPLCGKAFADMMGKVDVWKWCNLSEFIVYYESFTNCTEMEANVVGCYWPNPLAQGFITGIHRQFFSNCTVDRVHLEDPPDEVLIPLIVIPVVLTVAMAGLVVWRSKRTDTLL
Assay: cell-based or functional assay

B1: polypeptide derivative M6 (peptide)
peptide: {C20 diacid-γGlu}-ASQLSTAATQRLADFLRHFTDRDRDILPPTNVGSNTP-NH2
SMILES: CC[C@H](C)[C@H](NC(=O)[C@H](CC(=O)O)NC(=O)[C@H](CCCNC(=N)N)NC(=O)[C@H](CC(=O)O)NC(=O)[C@H](CCCNC(=N)N)NC(=O)[C@H](CC(=O)O)NC(=O)[C@@H](NC(=O)[C@H](Cc1ccccc1)NC(=O)[C@H](Cc1c[nH]cn1)NC(=O)[C@H](CCCNC(=N)N)NC(=O)[C@H](CC(C)C)NC(=O)[C@H](Cc1ccccc1)NC(=O)[C@H](CC(=O)O)NC(=O)[C@H](C)NC(=O)[C@H](CC(C)C)NC(=O)[C@H](CCCNC(=N)N)NC(=O)[C@H](CCC(N)=O)NC(=O)[C@@H](NC(=O)[C@H](C)NC(=O)[C@H](C)NC(=O)[C@@H](NC(=O)[C@H](CO)NC(=O)[C@H](CC(C)C)NC(=O)[C@H](CCC(N)=O)NC(=O)[C@H](CO)NC(=O)[C@H](C)NC(=O)CC[C@H](NC(=O)CCCCCCCCCCCCCCCCCCC(=O)O)C(=O)O)[C@@H](C)O)[C@@H](C)O)[C@@H](C)O)C(=O)N[C@@H](CC(C)C)C(=O)N1CCC[C@H]1C(=O)N1CCC[C@H]1C(=O)N[C@H](C(=O)N[C@@H](CC(N)=O)C(=O)N[C@H](C(=O)NCC(=O)N[C@@H](CO)C(=O)N[C@@H](CC(N)=O)C(=O)N[C@H](C(=O)N1CCC[C@H]1C(N)=O)[C@@H](C)O)C(C)C)[C@@H](C)O
With B1 the “EC50/nM, CRE-luciferase reporter in amylin receptor/CRE-luc CHO cells” value (shortened to “EC50/nM … in amylin receptor/CRE-luc CHO cells”) was 0.042 nM and the “Relative activity (the EC50 ratio of Cagrilintide to the compound)” value was 62%.

B2: polypeptide derivative M54 (peptide)
peptide: {C20 diacid-γGlu}-ASQLSTAATQRLADFLRHSSRNLKPILPPTNVGSNT[Hyp]-NH2
SMILES: CC[C@H](C)[C@H](NC(=O)[C@@H]1CCCN1C(=O)[C@H](CCCCN)NC(=O)[C@H](CC(C)C)NC(=O)[C@H](CC(N)=O)NC(=O)[C@H](CCCNC(=N)N)NC(=O)[C@H](CO)NC(=O)[C@H](CO)NC(=O)[C@H](Cc1c[nH]cn1)NC(=O)[C@H](CCCNC(=N)N)NC(=O)[C@H](CC(C)C)NC(=O)[C@H](Cc1ccccc1)NC(=O)[C@H](CC(=O)O)NC(=O)[C@H](C)NC(=O)[C@H](CC(C)C)NC(=O)[C@H](CCCNC(=N)N)NC(=O)[C@H](CCC(N)=O)NC(=O)[C@@H](NC(=O)[C@H](C)NC(=O)[C@H](C)NC(=O)[C@@H](NC(=O)[C@H](CO)NC(=O)[C@H](CC(C)C)NC(=O)[C@H](CCC(N)=O)NC(=O)[C@H](CO)NC(=O)[C@H](C)NC(=O)CC[C@H](NC(=O)CCCCCCCCCCCCCCCCCCC(=O)O)C(=O)O)[C@@H](C)O)[C@@H](C)O)C(=O)N[C@@H](CC(C)C)C(=O)N1CCC[C@H]1C(=O)N1CCC[C@H]1C(=O)N[C@H](C(=O)N[C@@H](CC(N)=O)C(=O)N[C@H](C(=O)NCC(=O)N[C@@H](CO)C(=O)N[C@@H](CC(N)=O)C(=O)N[C@H](C(=O)N1C[C@H](O)C[C@H]1C(N)=O)[C@@H](C)O)C(C)C)[C@@H](C)O
For B2, the “EC50/nM … in amylin receptor/CRE-luc CHO cells” value was 0.06 nM and the “Relative activity (the EC50 ratio of Cagrilintide to the compound)” value was 267%.

B3: polypeptide derivative M55 (peptide)
peptide: {C20 diacid-γGlu}-ASQLSTAATQRLADFLRHSSN[αMeN]LKPILPPTNVGSNT[Hyp]-NH2
For B3, the “EC50/nM … in amylin receptor/CRE-luc CHO cells” value was 0.03 nM and the “Relative activity (the EC50 ratio of Cagrilintide to the compound)” value was 233%.

B4: polypeptide derivative M53 (peptide)
peptide: {C20 diacid-γGlu}-ASQLSTAATQRLADFLRHSSKNLKPILPPTNVGSNT[Hyp]-NH2
SMILES: CC[C@H](C)[C@H](NC(=O)[C@@H]1CCCN1C(=O)[C@H](CCCCN)NC(=O)[C@H](CC(C)C)NC(=O)[C@H](CC(N)=O)NC(=O)[C@H](CCCCN)NC(=O)[C@H](CO)NC(=O)[C@H](CO)NC(=O)[C@H](Cc1c[nH]cn1)NC(=O)[C@H](CCCNC(=N)N)NC(=O)[C@H](CC(C)C)NC(=O)[C@H](Cc1ccccc1)NC(=O)[C@H](CC(=O)O)NC(=O)[C@H](C)NC(=O)[C@H](CC(C)C)NC(=O)[C@H](CCCNC(=N)N)NC(=O)[C@H](CCC(N)=O)NC(=O)[C@@H](NC(=O)[C@H](C)NC(=O)[C@H](C)NC(=O)[C@@H](NC(=O)[C@H](CO)NC(=O)[C@H](CC(C)C)NC(=O)[C@H](CCC(N)=O)NC(=O)[C@H](CO)NC(=O)[C@H](C)NC(=O)CC[C@H](NC(=O)CCCCCCCCCCCCCCCCCCC(=O)O)C(=O)O)[C@@H](C)O)[C@@H](C)O)C(=O)N[C@@H](CC(C)C)C(=O)N1CCC[C@H]1C(=O)N1CCC[C@H]1C(=O)N[C@H](C(=O)N[C@@H](CC(N)=O)C(=O)N[C@H](C(=O)NCC(=O)N[C@@H](CO)C(=O)N[C@@H](CC(N)=O)C(=O)N[C@H](C(=O)N1C[C@H](O)C[C@H]1C(N)=O)[C@@H](C)O)C(C)C)[C@@H](C)O
B4 was tested, and the “EC50/nM … in amylin receptor/CRE-luc CHO cells” value was 0.08 nM and the “Relative activity (the EC50 ratio of Cagrilintide to the compound)” value was 200%.

B5: polypeptide derivative M5 (peptide)
peptide: {C20 diacid-γGlu}-ASQLSTAATQRLADFLRHSSNNLKPILPPTNVGSNT[Hyp]-NH2
SMILES: CC[C@H](C)[C@H](NC(=O)[C@@H]1CCCN1C(=O)[C@H](CCCCN)NC(=O)[C@H](CC(C)C)NC(=O)[C@H](CC(N)=O)NC(=O)[C@H](CC(N)=O)NC(=O)[C@H](CO)NC(=O)[C@H](CO)NC(=O)[C@H](Cc1c[nH]cn1)NC(=O)[C@H](CCCNC(=N)N)NC(=O)[C@H](CC(C)C)NC(=O)[C@H](Cc1ccccc1)NC(=O)[C@H](CC(=O)O)NC(=O)[C@H](C)NC(=O)[C@H](CC(C)C)NC(=O)[C@H](CCCNC(=N)N)NC(=O)[C@H](CCC(N)=O)NC(=O)[C@@H](NC(=O)[C@H](C)NC(=O)[C@H](C)NC(=O)[C@@H](NC(=O)[C@H](CO)NC(=O)[C@H](CC(C)C)NC(=O)[C@H](CCC(N)=O)NC(=O)[C@H](CO)NC(=O)[C@H](C)NC(=O)CC[C@H](NC(=O)CCCCCCCCCCCCCCCCCCC(=O)O)C(=O)O)[C@@H](C)O)[C@@H](C)O)C(=O)N[C@@H](CC(C)C)C(=O)N1CCC[C@H]1C(=O)N1CCC[C@H]1C(=O)N[C@H](C(=O)N[C@@H](CC(N)=O)C(=O)N[C@H](C(=O)NCC(=O)N[C@@H](CO)C(=O)N[C@@H](CC(N)=O)C(=O)N[C@H](C(=O)N1C[C@H](O)C[C@H]1C(N)=O)[C@@H](C)O)C(C)C)[C@@H](C)O
In the case of B5, the “EC50/nM … in amylin receptor/CRE-luc CHO cells” value is reported as 0.031 nM and the “Relative activity (the EC50 ratio of Cagrilintide to the compound)” value is reported as 84%.

B6: polypeptide derivative M7 (peptide)
peptide: {C20 diacid-γGlu}-ASQLSTAVTQRLADFLRHSSNNLKPILPPTNVGSNT[Hyp]-NH2
SMILES: CC[C@H](C)[C@H](NC(=O)[C@@H]1CCCN1C(=O)[C@H](CCCCN)NC(=O)[C@H](CC(C)C)NC(=O)[C@H](CC(N)=O)NC(=O)[C@H](CC(N)=O)NC(=O)[C@H](CO)NC(=O)[C@H](CO)NC(=O)[C@H](Cc1c[nH]cn1)NC(=O)[C@H](CCCNC(=N)N)NC(=O)[C@H](CC(C)C)NC(=O)[C@H](Cc1ccccc1)NC(=O)[C@H](CC(=O)O)NC(=O)[C@H](C)NC(=O)[C@H](CC(C)C)NC(=O)[C@H](CCCNC(=N)N)NC(=O)[C@H](CCC(N)=O)NC(=O)[C@@H](NC(=O)[C@@H](NC(=O)[C@H](C)NC(=O)[C@@H](NC(=O)[C@H](CO)NC(=O)[C@H](CC(C)C)NC(=O)[C@H](CCC(N)=O)NC(=O)[C@H](CO)NC(=O)[C@H](C)NC(=O)CC[C@H](NC(=O)CCCCCCCCCCCCCCCCCCC(=O)O)C(=O)O)[C@@H](C)O)C(C)C)[C@@H](C)O)C(=O)N[C@@H](CC(C)C)C(=O)N1CCC[C@H]1C(=O)N1CCC[C@H]1C(=O)N[C@H](C(=O)N[C@@H](CC(N)=O)C(=O)N[C@H](C(=O)NCC(=O)N[C@@H](CO)C(=O)N[C@@H](CC(N)=O)C(=O)N[C@H](C(=O)N1C[C@H](O)C[C@H]1C(N)=O)[C@@H](C)O)C(C)C)[C@@H](C)O
B6 was tested, and the “EC50/nM … in amylin receptor/CRE-luc CHO cells” value was 0.066 nM and the “Relative activity (the EC50 ratio of Cagrilintide to the compound)” value was 39%.

B7: polypeptide derivative M1 (peptide)
peptide: {C20 diacid-γGlu}-ASELSTAALGRLADFLRHSSNNLKPILPPTNVGSNT[Hyp]-NH2
SMILES: CC[C@H](C)[C@H](NC(=O)[C@@H]1CCCN1C(=O)[C@H](CCCCN)NC(=O)[C@H](CC(C)C)NC(=O)[C@H](CC(N)=O)NC(=O)[C@H](CC(N)=O)NC(=O)[C@H](CO)NC(=O)[C@H](CO)NC(=O)[C@H](Cc1c[nH]cn1)NC(=O)[C@H](CCCNC(=N)N)NC(=O)[C@H](CC(C)C)NC(=O)[C@H](Cc1ccccc1)NC(=O)[C@H](CC(=O)O)NC(=O)[C@H](C)NC(=O)[C@H](CC(C)C)NC(=O)[C@H](CCCNC(=N)N)NC(=O)CNC(=O)[C@H](CC(C)C)NC(=O)[C@H](C)NC(=O)[C@H](C)NC(=O)[C@@H](NC(=O)[C@H](CO)NC(=O)[C@H](CC(C)C)NC(=O)[C@H](CCC(=O)O)NC(=O)[C@H](CO)NC(=O)[C@H](C)NC(=O)CC[C@H](NC(=O)CCCCCCCCCCCCCCCCCCC(=O)O)C(=O)O)[C@@H](C)O)C(=O)N[C@@H](CC(C)C)C(=O)N1CCC[C@H]1C(=O)N1CCC[C@H]1C(=O)N[C@H](C(=O)N[C@@H](CC(N)=O)C(=O)N[C@H](C(=O)NCC(=O)N[C@@H](CO)C(=O)N[C@@H](CC(N)=O)C(=O)N[C@H](C(=O)N1C[C@H](O)C[C@H]1C(N)=O)[C@@H](C)O)C(C)C)[C@@H](C)O
In the case of B7, the “EC50/nM … in amylin receptor/CRE-luc CHO cells” value is reported as 0.053 nM and the “Relative activity (the EC50 ratio of Cagrilintide to the compound)” value is reported as 49%.

From EP4663654A1 (Hangzhou Sciwind Biosciences Co., Ltd., dated 2025)
